B1: BCL2L13 (parent)
chain: YIIQQGGWGTVFSLESEEEEYPGI

Variants of: B1
Assay: protein stability index of a GFP-peptide fusion (GPS, HEK-293T) (PSI 1-6); higher = more stable
Settings: c terminus: a fixed tail appended
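Note: lentivirally expressed fusions sorted by FACS into six bins by GFP to DsRed ratio, PSI derived from sequencing read proportions per bin multiplied by bin number.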

First: YIIEQGGWGTVFSLESEEEEYPGI [Q4E]
Second: CIIQQGGWGTVFSLESEEEEYPGI [Y1C]
The protein stability index of the first is lower: 1.4 for the first, 2.47 for the second.

Going from YIIQQGGWGTVFSLESEEEEYPGP [I24P] to YIIQQGGWGTAFSLESEEEEYPGI [V11A], the protein stability index falls from 2.14 to 2.12.

Compared with YIIQQGGWGDVFSLESEEEEYPGI [T10D], YAIQQGGWGTVFSLESEEEEYPGI [I2A] is higher in protein stability index: 1.31 for the first, 1.96 for the second.

First: YIIQQGGWGTTFSLESEEEEYPGI [V11T]
Second: YIIQQGGWGTVFSLESEEWEYPGI [E19W]
The protein stability index of the first is lower: 1 for the first, 2.31 for the second.

Going from YEIQQGGWGTVFSLESEEEEYPGI [I2E] to YIIQQGGWGTVFSLESELEEYPGI [E18L], the protein stability index falls from 5.34 to 1.92.

Going from YWIQQGGWGTVFSLESEEEEYPGI [I2W] to YIIQQGGWGTVFSLESEEEEYPFI [G23F], the protein stability index falls from 2.38 to 1.26.

First: YIIQQGGWGTVFSLESEEEESPGI [Y21S]
Second: YIIQQGGWGTVFSLESEEEEYLGI [P22L]
The protein stability index of the first is lower: 1.14 for the first, 2.9 for the second.

Compared with YIIQQGGWGTVFCLESEEEEYPGI [S13C], YIIQQGNWGTVFSLESEEEEYPGI [G7N] is lower in protein stability index: 1.49 for the first, 1.05 for the second.

Compared with YIIQQGGWGTVFSLESEEEEYPGS [I24S], YIIQQGGWGTVLSLESEEEEYPGI [F12L] is higher in protein stability index: 1.23 for the first, 1.81 for the second.

First: YIIQQGGWGTVFSLESEEEEYPGN [I24N]
Second: YIIQQGGWHTVFSLESEEEEYPGI [G9H]
The protein stability index of the first is higher: 2.39 for the first, 1.42 for the second.

Compared with YIIQQGGWGTVFSLESEEEEYPGF [I24F], YIIQQGGWGTVFSLESETEEYPGI [E18T] is lower in protein stability index: 2.58 for the first, 1.99 for the second.

Compared with YIIQQGGWGTVFSLESEEEEMPGI [Y21M], YIIQQKGWGTVFSLESEEEEYPGI [G6K] is higher in protein stability index: 2.26 for the first, 2.9 for the second.

Going from YIIQQGGWGTFFSLESEEEEYPGI [V11F] to YIIQQEGWGTVFSLESEEEEYPGI [G6E], the protein stability index falls from 2.93 to 2.06.

First: YIIQQGGDGTVFSLESEEEEYPGI [W8D]
Second: YIIQQGGWGTVASLESEEEEYPGI [F12A]
The protein stability index of the first is higher: 2.56 for the first, 2.5 for the second.

Compared with YTIQQGGWGTVFSLESEEEEYPGI [I2T], YIIQQGGWGTVVSLESEEEEYPGI [F12V] is lower in protein stability index: 2.75 for the first, 1.65 for the second.

First: YIIQQGGWGTSFSLESEEEEYPGI [V11S]
Second: YFIQQGGWGTVFSLESEEEEYPGI [I2F]
The protein stability index of the first is lower: 2.61 for the first, 2.68 for the second.

Compared with YIIQQGGWGTVFSLETEEEEYPGI [S16T], YGIQQGGWGTVFSLESEEEEYPGI [I2G] is higher in protein stability index: 2.25 for the first, 2.95 for the second.

Going from YIIQQGGWGTVFSLEIEEEEYPGI [S16I] to YIIQQGGWGTVFSLMSEEEEYPGI [E15M], the protein stability index falls from 4.26 to 3.49.

Compared with YIIQQGGWGTVFSLEMEEEEYPGI [S16M], YIIQQGGWGTVFSLESEEEEYPLI [G23L] is lower in protein stability index: 2.68 for the first, 2.01 for the second.

First: YIIQTGGWGTVFSLESEEEEYPGI [Q5T]
Second: YIIQQGGWGTYFSLESEEEEYPGI [V11Y]
The protein stability index of the first is lower: 1.72 for the first, 2.04 for the second.

Going from YIIQQGGWGTVFSLEAEEEEYPGI [S16A] to YIIQQGGWGTPFSLESEEEEYPGI [V11P], the protein stability index rises from 1.69 to 1.76.

First: YIIQQGGWGTHFSLESEEEEYPGI [V11H]
Second: YIIQQGGWGTVFSLESEEEAYPGI [E20A]
The protein stability index of the first is higher: 2.25 for the first, 1.13 for the second.

First: YIIQQGGWGTVFSLESEEEEYDGI [P22D]
Second: YIIQQGGWGTVFSLESEEEEYPGY [I24Y]
The protein stability index of the first is higher: 2.69 for the first, 1.22 for the second.

Compared with YIIQQGGWGTVFSLESEEECYPGI [E20C], YIIQQGGPGTVFSLESEEEEYPGI [W8P] is higher in protein stability index: 1.91 for the first, 2.97 for the second.

Compared with YIIQQGGWGTVFSYESEEEEYPGI [L14Y], YIIQQGGWGTVFSLESEEESYPGI [E20S] is lower in protein stability index: 1.84 for the first, 1.82 for the second.

Going from YIIQQGGRGTVFSLESEEEEYPGI [W8R] to YIIQQGGHGTVFSLESEEEEYPGI [W8H], the protein stability index rises from 2.37 to 2.81.

Compared with YRIQQGGWGTVFSLESEEEEYPGI [I2R], YIIQQGGWCTVFSLESEEEEYPGI [G9C] is higher in protein stability index: 2.42 for the first, 3.36 for the second.

First: YIIQQGGWGTVFSLESEEEEYPII [G23I]
Second: YIIQQGGWQTVFSLESEEEEYPGI [G9Q]
The protein stability index of the first is lower: 1.76 for the first, 1.81 for the second.

Going from YIIQQGGWGTVFSLESEEEEYPMI [G23M] to YIPQQGGWGTVFSLESEEEEYPGI [I3P], the protein stability index falls from 2.57 to 2.56.

Going from YIIQQGGWGTVFSLESEFEEYPGI [E18F] to YYIQQGGWGTVFSLESEEEEYPGI [I2Y], the protein stability index falls from 2.56 to 2.46.

Going from YIIQQGGWGHVFSLESEEEEYPGI [T10H] to YIIQQGGWGTVFSLESEEEHYPGI [E20H], the protein stability index rises from 1.11 to 2.46.

Compared with YIIQQGGWTTVFSLESEEEEYPGI [G9T], YIIQQGGWGTVFSLEKEEEEYPGI [S16K] is lower in protein stability index: 3 for the first, 2.69 for the second.

Going from YIIQQGGWGTVFSLESEEEEYYGI [P22Y] to YIIQQGGWGTNFSLESEEEEYPGI [V11N], the protein stability index rises from 1.38 to 1.98.

Compared with YIIQQGGWGTVFSLEGEEEEYPGI [S16G], YIIQQGGWGTVFSLESEEEEYPNI [G23N] is lower in protein stability index: 2.38 for the first, 1.16 for the second.

Going from YIIQQGGWGTVTSLESEEEEYPGI [F12T] to YIIQQGTWGTVFSLESEEEEYPGI [G7T], the protein stability index falls from 2.13 to 1.45.

Compared with YIIQQGGWGTVFTLESEEEEYPGI [S13T], YIIQQGGWGMVFSLESEEEEYPGI [T10M] is lower in protein stability index: 1.62 for the first, 1.4 for the second.

Compared with YIIQQGGWGTVFSLESEEEEYKGI [P22K], YIIQQGGWGTVFSLESEEEEYPQI [G23Q] is lower in protein stability index: 2.65 for the first, 1.84 for the second.

Going from YIIQQGGWGTVFSLESTEEEYPGI [E17T] to YIIQQGGWGTVFSIESEEEEYPGI [L14I], the protein stability index falls from 2.81 to 1.76.

Going from YIIQQGGWGTVFSLNSEEEEYPGI [E15N] to NIIQQGGWGTVFSLESEEEEYPGI [Y1N], the protein stability index rises from 2.34 to 4.12.

Compared with YIIQQRGWGTVFSLESEEEEYPGI [G6R], YIIQQGIWGTVFSLESEEEEYPGI [G7I] is higher in protein stability index: 2.02 for the first, 2.58 for the second.

Going from YIIQQGGWGTVFSLEEEEEEYPGI [S16E] to YIIQQGGKGTVFSLESEEEEYPGI [W8K], the protein stability index rises from 1.59 to 2.1.

Compared with YIIQQGGWGTVFSLESEEEEYRGI [P22R], EIIQQGGWGTVFSLESEEEEYPGI [Y1E] is higher in protein stability index: 1.92 for the first, 2.86 for the second.

First: YIIQQGGWGTVFSLESEEREYPGI [E19R]
Second: YIIAQGGWGTVFSLESEEEEYPGI [Q4A]
The protein stability index of the first is lower: 1.93 for the first, 2.19 for the second.

Going from YIIQQNGWGTVFSLESEEEEYPGI [G6N] to YIIQQGGWGTVFSLECEEEEYPGI [S16C], the protein stability index rises from 2.15 to 3.01.

Compared with YQIQQGGWGTVFSLESEEEEYPGI [I2Q], YIIQQGGWGPVFSLESEEEEYPGI [T10P] is lower in protein stability index: 1.98 for the first, 1.07 for the second.

Compared with YKIQQGGWGTVFSLESEEEEYPGI [I2K], YIIQQGGWGTVFSLESEPEEYPGI [E18P] is lower in protein stability index: 3.31 for the first, 1.53 for the second.

Compared with YIIQQGAWGTVFSLESEEEEYPGI [G7A], YIIQRGGWGTVFSLESEEEEYPGI [Q5R] is lower in protein stability index: 2.35 for the first, 1.92 for the second.

Source: the supplement of paper PMC10567573
